Experimental data published in patent US20250186594A1.

Tests used:
Assay in all cases: cell-based or functional assay
[1] = target: IL-18 variant SEQ ID NO: 210 (V11I, E31A, C38A, K53A, C76A, C127A) (human) (UniProt Q14116)
[2] = target: IL-18 variant SEQ ID NO: 207 (V11I, C38A, M51G, K53A, C76A, C127A) (human) (UniProt Q14116)
[3] = target: IL-18 variant SEQ ID NO: 205 (V11I, C38A, K53A, T63A, C76A, C127A) (human) (UniProt Q14116)
[4] = target: IL-18 variant SEQ ID NO: 57 with 30 kDa PEG (E6K, C38S, K53A, C68-30kDPEG) (human) (UniProt Q14116)
[5] = target: IL-18 variant SEQ ID NO: 30 with 5 kDa PEG (E6K, V11I, C38A, K53A, T63A, C76A, C127A, C68-5kPEG) (human) (UniProt Q14116)
[6] = target: IL-18 variant SEQ ID NO: 63 (E6K, C38A, K53A, C76A, C127A) (human) (UniProt Q14116)
[7] = target: IL-18 variant SEQ ID NO: 213 (V11I, S36A, C38A, K53A, C76A, C127A) (human) (UniProt Q14116)
[8] = target: IL-18 variant SEQ ID NO: 229 (V11I, C38A, C76A, S105K, C127A) (human) (UniProt Q14116)
[9] = target: IL-18 variant SEQ ID NO: 204 (V11I, C38A, K53A, C76A, C127A) (human) (UniProt Q14116)
[10] = target: IL-18 variant SEQ ID NO: 220 (V11I, C38A, K53A, C76A, H109A, C127A) (human) (UniProt Q14116)
[11] = target: IL-18 variant SEQ ID NO: 59 with 30 kDa PEG (E6K, C38A, K53A, C68-30kDPEG) (human) (UniProt Q14116)
[12] = target: IL-18 variant SEQ ID NO: 4 with 30 kDa PEG (E6K, C38A, K53A, C68A, M86C-30kPEG) (human) (UniProt Q14116)
[13] = target: IL-18 variant SEQ ID NO: 59 (E6K, C38A, K53A) (human) (UniProt Q14116)
[14] = target: IL-18 variant SEQ ID NO: 224 (V11I, C38A, C76A, Q103K, C127A) (human) (UniProt Q14116)
[15] = target: IL-18 variant SEQ ID NO: 228 (V11I, C38A, C76A, S105I, C127A) (human) (UniProt Q14116)
[16] = target: IL-18 variant SEQ ID NO: 208 (V11I, C38A, K53A, D54A, C76A, C127A) (human) (UniProt Q14116)
[17] = target: IL-18 variant SEQ ID NO: 6 (E6K, V11I, C38A, K53A, T63A, C68A, C76A, D98C, C127A) (human) (UniProt Q14116)
[18] = target: IL-18 variant SEQ ID NO: 4 (E6K, C38A, K53A, C68A, M86C) (human) (UniProt Q14116)
[19] = target: IL-18 variant SEQ ID NO: 9 (E6K, C38A, K53A, C68A, D98C) (human) (UniProt Q14116)
[20] = target: IL-18 variant SEQ ID NO: 221 (V11I, C38A, K53A, C76A, D110A, C127A) (human) (UniProt Q14116)
[21] = target: IL-18 variant SEQ ID NO: 226 (V11I, C38A, S55R, C76A, C127A) (human) (UniProt Q14116)
[22] = target: IL-18 variant SEQ ID NO: 59 with 10 kDa PEG (E6K, C38A, K53A, C68-10kPEG) (human) (UniProt Q14116)
[23] = target: IL-18 variant SEQ ID NO: 5 (E6K, V11I, C38A, K53A, T63A, C68A, C76A, M86C, C127A) (human) (UniProt Q14116)
[24] = target: IL-18 variant SEQ ID NO: 215 (V11I, E31A, D37A, C38A, K53A, C76A, C127A) (human) (UniProt Q14116)
[25] = target: IL-18 variant SEQ ID NO: 11 (E6K, V11I, C38A, K53A, C76A, C127A) (human) (UniProt Q14116)
[26] = target: IL-18 variant SEQ ID NO: 206 (V11I, C38A, K53A, S55A, C76A, C127A) (human) (UniProt Q14116)
[27] = target: IL-18 variant SEQ ID NO: 216 (V11I, C38A, D40A, K53A, C76A, C127A) (human) (UniProt Q14116)
[28] = target: IL-18 variant SEQ ID NO: 211 (V11I, T34A, C38A, K53A, C76A, C127A) (human) (UniProt Q14116)
[29] = target: IL-18 variant SEQ ID NO: 9 with 30 kDa PEG (E6K, C38A, K53A, C68A, D98C-30kPEG) (human) (UniProt Q14116)
IL-18 variant SEQ ID NO: 9 with 30 kDa PEG (E6K, C38A, K53A, C68A, D98C-30kPEG) (human), sequence (Q14116 other isoform, or with tags, fused parts or gaps C38A K53A C68A D98C C38A K53A C68A D98C): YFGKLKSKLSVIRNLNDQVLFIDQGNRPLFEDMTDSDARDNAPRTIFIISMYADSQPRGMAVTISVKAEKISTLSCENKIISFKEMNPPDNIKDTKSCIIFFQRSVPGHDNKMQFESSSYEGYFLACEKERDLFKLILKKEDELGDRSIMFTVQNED

IL-18 variant SEQ ID NO: 228 (V11I, C38A, C76A, S105I, C127A) (human), sequence (Q14116 37-193 V47I/C74A/C112A/S141I/C163A): as the sequence (Q14116 other isoform, or with tags, fused parts or gaps C38A K53A C68A D98C C38A K53A C68A D98C) above, with K6E, V11I, A53K, A68C, C76A, C98D, S105I, C127A counted along it
IL-18 variant SEQ ID NO: 63 (E6K, C38A, K53A, C76A, C127A) (human), sequence (Q14116 other isoform, or with tags, fused parts or gaps C38A K53A C76A C127A C38A K53A C76A C127A): as the sequence (Q14116 other isoform, or with tags, fused parts or gaps C38A K53A C68A D98C C38A K53A C68A D98C) above, with A68C, C76A, C98D, C127A counted along it
IL-18 variant SEQ ID NO: 57 with 30 kDa PEG (E6K, C38S, K53A, C68-30kDPEG) (human), sequence (Q14116 other isoform, or with tags, fused parts or gaps C38S K53A C38S K53A): as the sequence (Q14116 other isoform, or with tags, fused parts or gaps C38A K53A C68A D98C C38A K53A C68A D98C) above, with A38S, A68C, C98D counted along it
IL-18 variant SEQ ID NO: 221 (V11I, C38A, K53A, C76A, D110A, C127A) (human), sequence (Q14116 37-193 V47I/C74A/K89A/C112A/D146A/C163A): as the sequence (Q14116 other isoform, or with tags, fused parts or gaps C38A K53A C68A D98C C38A K53A C68A D98C) above, with K6E, V11I, A68C, C76A, C98D, D110A, C127A counted along it
IL-18 variant SEQ ID NO: 205 (V11I, C38A, K53A, T63A, C76A, C127A) (human), sequence (Q14116 37-193 V47I/C74A/K89A/T99A/C112A/C163A): as the sequence (Q14116 other isoform, or with tags, fused parts or gaps C38A K53A C68A D98C C38A K53A C68A D98C) above, with K6E, V11I, T63A, A68C, C76A, C98D, C127A counted along it
IL-18 variant SEQ ID NO: 210 (V11I, E31A, C38A, K53A, C76A, C127A) (human), sequence (Q14116 37-193 V47I/E67A/C74A/K89A/C112A/C163A): as the sequence (Q14116 other isoform, or with tags, fused parts or gaps C38A K53A C68A D98C C38A K53A C68A D98C) above, with K6E, V11I, E31A, A68C, C76A, C98D, C127A counted along it
IL-18 variant SEQ ID NO: 224 (V11I, C38A, C76A, Q103K, C127A) (human), sequence (Q14116 37-193 V47I/C74A/C112A/Q139K/C163A): as the sequence (Q14116 other isoform, or with tags, fused parts or gaps C38A K53A C68A D98C C38A K53A C68A D98C) above, with K6E, V11I, A53K, A68C, C76A, C98D, Q103K, C127A counted along it
IL-18 variant SEQ ID NO: 11 (E6K, V11I, C38A, K53A, C76A, C127A) (human), sequence (Q14116 other isoform, or with tags, fused parts or gaps V11I C38A K53A C76A C127A V11I C38A K53A C76A C127A): as the sequence (Q14116 other isoform, or with tags, fused parts or gaps C38A K53A C68A D98C C38A K53A C68A D98C) above, with V11I, A68C, C76A, C98D, C127A counted along it
IL-18 variant SEQ ID NO: 5 (E6K, V11I, C38A, K53A, T63A, C68A, C76A, M86C, C127A) (human), sequence (Q14116 other isoform, or with tags, fused parts or gaps with the stated changes): as the sequence (Q14116 other isoform, or with tags, fused parts or gaps C38A K53A C68A D98C C38A K53A C68A D98C) above, with V11I, T63A, C76A, M86C, C98D, C127A counted along it
IL-18 variant SEQ ID NO: 30 with 5 kDa PEG (E6K, V11I, C38A, K53A, T63A, C76A, C127A, C68-5kPEG) (human), sequence (Q14116 other isoform, or with tags, fused parts or gaps with the stated changes): as the sequence (Q14116 other isoform, or with tags, fused parts or gaps C38A K53A C68A D98C C38A K53A C68A D98C) above, with V11I, T63A, A68C, C76A, C98D, C127A counted along it
IL-18 variant SEQ ID NO: 229 (V11I, C38A, C76A, S105K, C127A) (human), sequence (Q14116 37-193 V47I/C74A/C112A/S141K/C163A): as the sequence (Q14116 other isoform, or with tags, fused parts or gaps C38A K53A C68A D98C C38A K53A C68A D98C) above, with K6E, V11I, A53K, A68C, C76A, C98D, S105K, C127A counted along it
IL-18 variant SEQ ID NO: 220 (V11I, C38A, K53A, C76A, H109A, C127A) (human), sequence (Q14116 37-193 V47I/C74A/K89A/C112A/H145A/C163A): as the sequence (Q14116 other isoform, or with tags, fused parts or gaps C38A K53A C68A D98C C38A K53A C68A D98C) above, with K6E, V11I, A68C, C76A, C98D, H109A, C127A counted along it
IL-18 variant SEQ ID NO: 9 (E6K, C38A, K53A, C68A, D98C) (human), sequence (Q14116 other isoform, or with tags, fused parts or gaps C38A K53A C68A D98C C38A K53A C68A D98C): as the sequence (Q14116 other isoform, or with tags, fused parts or gaps C38A K53A C68A D98C C38A K53A C68A D98C) above
IL-18 variant SEQ ID NO: 208 (V11I, C38A, K53A, D54A, C76A, C127A) (human), sequence (Q14116 37-193 V47I/C74A/K89A/D90A/C112A/C163A): as the sequence (Q14116 other isoform, or with tags, fused parts or gaps C38A K53A C68A D98C C38A K53A C68A D98C) above, with K6E, V11I, D54A, A68C, C76A, C98D, C127A counted along it
IL-18 variant SEQ ID NO: 226 (V11I, C38A, S55R, C76A, C127A) (human), sequence (Q14116 37-193 V47I/C74A/S91R/C112A/C163A): as the sequence (Q14116 other isoform, or with tags, fused parts or gaps C38A K53A C68A D98C C38A K53A C68A D98C) above, with K6E, V11I, A53K, S55R, A68C, C76A, C98D, C127A counted along it
IL-18 variant SEQ ID NO: 211 (V11I, T34A, C38A, K53A, C76A, C127A) (human), sequence (Q14116 37-193 V47I/T70A/C74A/K89A/C112A/C163A): as the sequence (Q14116 other isoform, or with tags, fused parts or gaps C38A K53A C68A D98C C38A K53A C68A D98C) above, with K6E, V11I, T34A, A68C, C76A, C98D, C127A counted along it
IL-18 variant SEQ ID NO: 213 (V11I, S36A, C38A, K53A, C76A, C127A) (human), sequence (Q14116 37-193 V47I/S72A/C74A/K89A/C112A/C163A): as the sequence (Q14116 other isoform, or with tags, fused parts or gaps C38A K53A C68A D98C C38A K53A C68A D98C) above, with K6E, V11I, S36A, A68C, C76A, C98D, C127A counted along it
IL-18 variant SEQ ID NO: 204 (V11I, C38A, K53A, C76A, C127A) (human), sequence (Q14116 37-193 V47I/C74A/K89A/C112A/C163A): as the sequence (Q14116 other isoform, or with tags, fused parts or gaps C38A K53A C68A D98C C38A K53A C68A D98C) above, with K6E, V11I, A68C, C76A, C98D, C127A counted along it
IL-18 variant SEQ ID NO: 4 with 30 kDa PEG (E6K, C38A, K53A, C68A, M86C-30kPEG) (human), sequence (Q14116 other isoform, or with tags, fused parts or gaps C38A K53A C68A M86C C38A K53A C68A M86C): as the sequence (Q14116 other isoform, or with tags, fused parts or gaps C38A K53A C68A D98C C38A K53A C68A D98C) above, with M86C, C98D counted along it
IL-18 variant SEQ ID NO: 4 (E6K, C38A, K53A, C68A, M86C) (human), sequence (Q14116 other isoform, or with tags, fused parts or gaps C38A K53A C68A M86C C38A K53A C68A M86C): as the sequence (Q14116 other isoform, or with tags, fused parts or gaps C38A K53A C68A D98C C38A K53A C68A D98C) above, with M86C, C98D counted along it
IL-18 variant SEQ ID NO: 216 (V11I, C38A, D40A, K53A, C76A, C127A) (human), sequence (Q14116 37-193 V47I/C74A/D76A/K89A/C112A/C163A): as the sequence (Q14116 other isoform, or with tags, fused parts or gaps C38A K53A C68A D98C C38A K53A C68A D98C) above, with K6E, V11I, D40A, A68C, C76A, C98D, C127A counted along it
IL-18 variant SEQ ID NO: 207 (V11I, C38A, M51G, K53A, C76A, C127A) (human), sequence (Q14116 37-193 V47I/C74A/M87G/K89A/C112A/C163A): as the sequence (Q14116 other isoform, or with tags, fused parts or gaps C38A K53A C68A D98C C38A K53A C68A D98C) above, with K6E, V11I, M51G, A68C, C76A, C98D, C127A counted along it
IL-18 variant SEQ ID NO: 215 (V11I, E31A, D37A, C38A, K53A, C76A, C127A) (human), sequence (Q14116 37-193 V47I/E67A/D73A/C74A/K89A/C112A/C163A): as the sequence (Q14116 other isoform, or with tags, fused parts or gaps C38A K53A C68A D98C C38A K53A C68A D98C) above, with K6E, V11I, E31A, D37A, A68C, C76A, C98D, C127A counted along it
IL-18 variant SEQ ID NO: 59 (E6K, C38A, K53A) (human), sequence (Q14116 other isoform, or with tags, fused parts or gaps C38A K53A C38A K53A): as the sequence (Q14116 other isoform, or with tags, fused parts or gaps C38A K53A C68A D98C C38A K53A C68A D98C) above, with A68C, C98D counted along it
IL-18 variant SEQ ID NO: 59 with 10 kDa PEG (E6K, C38A, K53A, C68-10kPEG) (human), sequence (Q14116 other isoform, or with tags, fused parts or gaps C38A K53A C38A K53A): as the sequence (Q14116 other isoform, or with tags, fused parts or gaps C38A K53A C68A D98C C38A K53A C68A D98C) above, with A68C, C98D counted along it
IL-18 variant SEQ ID NO: 59 with 30 kDa PEG (E6K, C38A, K53A, C68-30kDPEG) (human), sequence (Q14116 other isoform, or with tags, fused parts or gaps C38A K53A C38A K53A): as the sequence (Q14116 other isoform, or with tags, fused parts or gaps C38A K53A C68A D98C C38A K53A C68A D98C) above, with A68C, C98D counted along it
IL-18 variant SEQ ID NO: 206 (V11I, C38A, K53A, S55A, C76A, C127A) (human), sequence (Q14116 37-193 V47I/C74A/K89A/S91A/C112A/C163A): as the sequence (Q14116 other isoform, or with tags, fused parts or gaps C38A K53A C68A D98C C38A K53A C68A D98C) above, with K6E, V11I, S55A, A68C, C76A, C98D, C127A counted along it

Substance: Fc fused human IL-18BP isoform a (IL-18BPa) (from UniProt O95998 31-194) (Fc fusion)
- IC50 of IL-18BPa-Fc on IFNγ secretion, NK-92 [1]: 1.17 nM
- IC50 of IL-18BPa-Fc on IFNγ secretion, NK-92 [2]: 733 nM
- IC50 of IL-18BPa-Fc on IFNγ secretion, NK-92 [3]: 7.52 nM
- IC50 of IL-18BPa-Fc on IFNγ secretion, NK-92 [4]: 11.4 nM
- IC50 of IL-18BPa-Fc on IFNγ secretion, NK-92 [5]: 105 nM
- IC50 of IL-18BPa-Fc on IFNγ secretion, NK-92 [6]: 286 nM
- IC50 of IL-18BPa-Fc on IFNγ secretion, NK-92 [7]: 7.85 nM
- IC50 of IL-18BPa-Fc on IFNγ secretion, NK-92 [8]: 0.176 nM
- IC50 of IL-18BPa-Fc on IFNγ secretion, NK-92 [9]: 1.62 nM
- IC50 of IL-18BPa-Fc on IFNγ secretion, NK-92 [10]: 1.81 nM
- IC50 of IL-18BPa-Fc on IFNγ secretion, NK-92 [11]: 41.8 nM
- IC50 of IL-18BPa-Fc on IFNγ secretion, NK-92 [12]: 126 nM
- IC50 of IL-18BPa-Fc on IFNγ secretion, NK-92 [13]: 654 nM
- IC50 of IL-18BPa-Fc on IFNγ secretion, NK-92 [14]: 0.823 nM
- IC50 of IL-18BPa-Fc on IFNγ secretion, NK-92 [15]: 0.809 nM
- IC50 of IL-18BPa-Fc on IFNγ secretion, NK-92 [16]: 47.6 nM
- IC50 of IL-18BPa-Fc on IFNγ secretion, NK-92 [17]: 25.3 nM
- IC50 of IL-18BPa-Fc on IFNγ secretion, NK-92 [18]: 1000 nM
- IC50 of IL-18BPa-Fc on IFNγ secretion, NK-92 [19]: 1000 nM
- IC50 of IL-18BPa-Fc on IFNγ secretion, NK-92 [20]: 3.18 nM
- IC50 of IL-18BPa-Fc on IFNγ secretion, NK-92 [21]: 0.885 nM
- IC50 of IL-18BPa-Fc on IFNγ secretion, NK-92 [22]: 236 nM
- IC50 of IL-18BPa-Fc on IFNγ secretion, NK-92 [23]: 358 nM
- IC50 of IL-18BPa-Fc on IFNγ secretion, NK-92 [24]: 3.71 nM
- IC50 of IL-18BPa-Fc on IFNγ secretion, NK-92 [25]: 532 nM
- IC50 of IL-18BPa-Fc on IFNγ secretion, NK-92 [26]: 10.2 nM
- IC50 of IL-18BPa-Fc on IFNγ secretion, NK-92 [27]: 3.23 nM
- IC50 of IL-18BPa-Fc on IFNγ secretion, NK-92 [28]: 21.3 nM
- IC50 of IL-18BPa-Fc on IFNγ secretion, NK-92 [29]: 143 nM
